B1: YnaI, C-terminally His-tagged (pYnaI) (natural protein, E. coli, UniProt P0AEB5 1-343, looked up)
chain: MIAELFTNNALNLVIIFGSCAALILMSFWFRRGNRKRKGFLFHAVQFLIYTIIISAVGSIINYVIENYKLKFITPGVIDFICTSLIAVILTIKLFLLINQFEKQQIKKGRDITSARIMSRIIKITIIVVLVLLYGEHFGMSLSGLLTFGGIGGLAVGMAGKDILSNFFSGIMLYFDRPFSIGDWIRSPDRNIEGTVAEIGWRITKITTFDNRPLYVPNSLFSSISVENPGRMTNRRITTTIGLRYEDAAKVGVIVEAVREMLKNHPAIDQRQTLLVYFNQFADSSLNIMVYCFTKTTVWAEWLAAQQDVYLKIIDIVQSHGADFAFPSQTLYMDNITPPEQGR
B2: YbiO, C-terminally His-tagged (pYbiO) (natural protein, E. coli K12 MG1655, UniProt P75783 19-741, looked up)
chain: VSIPGVTTTTTTDSTTEPAPEPDIEQKKAAYGALADVLDNDTSRKELIDQLRTVAATPPAEPVPKIVPPTLVEEQTVLQKVTEVSRHYGEALSARFGQLYRNITGSPHKPFNPQTFSNALTHFSMLAVLVFGFYWLIRLCALPLYRKMGQWARQKNRERSNWLQLPAMIIGAFIIDLLLLALTLFVGQVLSDNLNAGSRTIAFQQSLFLNAFALIEFFKAVLRLIFCPNVAELRPFTIQDESARYWSRRLSWLSSLIGYGLIVAVPIISNQVNVQIGALANVIIMLCMTVWALYLIFRNKKEITQHLLNFAEHSLAFFSLFIRAFALVWHWLASAYFIVLFFFSLFDPGNSLKFMMGATVRSLAIIGIAAFVSGMFSRWLAKTITLSPHTQRNYPELQKRLNGWLSAALKTARILTVCVAVMLLLSAWGLFDFWNWLQNGAGQKTVDILIRIALILFFSAVGWTVLASLIENRLASDIHGRPLPSARTRTLLTLFRNALAVIISTITIMIVLSEIGVNIAPLLAGAGALGLAISFGSQTLVKDIITGVFIQFENGMNTGDLVTIGPLTGTVERMSIRSVGVRQDTGAYHIIPWSSITTFANFVRGIGSVVANYDVDRHEDADKANQALKDAVAELMENEEIRGLIIGEPNFAGIVGLSNTAFTLRVSFTTLPLKQWTVRFALDSQVKKHFDLAGVRAPVQTYQVLPAPGATPAEPLPPGEPTL

Molecular target: the molecule itself
Experiment: SEC-MALS

| Protein | stoichiometry N |
| --- | --- |
| B1 | 7 |
| B2 | 7 |

Source: article PMC3508906 (Channels, 2012)
